From patent US6051698
Like-named read-outs stand apart in the source and are kept apart here.

Assays:
[1] = system: T1, VEGF165 (Homo sapiens), P15692-4; assay: filter; conditions: 2'-F pyrimidines, 2'-OH purines, 37 C
T1 sequence: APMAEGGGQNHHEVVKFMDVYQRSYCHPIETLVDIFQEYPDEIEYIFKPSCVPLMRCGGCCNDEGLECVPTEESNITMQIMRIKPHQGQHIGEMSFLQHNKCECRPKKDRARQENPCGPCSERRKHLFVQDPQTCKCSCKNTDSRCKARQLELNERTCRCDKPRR

[2] = system: VEGF165 (Homo sapiens), P15692-4; conditions: 2'-NH2 pyrimidines, 2'-OMe purines; CITED US 5811533; cited from earlier work

Row | Substance | Kd [1] [nM] | Kd ([1]; single determination) [nM] | other results
1 | GGGAGGACGAUGCGGYGAACCGAUGGAAUUUUUGGACGCUCGCCUCAGACGACUCGCCCGA [VP30.2] | 0.01 |  | 
2 | GGGAGGACGAUGCGGAGAAUCAGUGAAUGCUUAUAAAUCUCGYGUCAGACGACUCGCCCGA [VT30.3] |  | 0.005 | 
3 | GGGAGGACGAUGCGGAYCAACCGAUUGACGUUAUGGGACGCUGGUCAGACGACUCGCCCGA [VP30.5] |  | 0.008 | 
4 | GGGAGGACGAUGCGGCGGYACUUUGGAAGAAUUGAAUUUCCCGCUCAGACGACUCGCCCGA [VP30.26] |  | 0.01 | 
5 | GGGAGGACGAUGCGGUAGGAAGAAUUGGAAGCGCAUUUUCCUCGYCAGACGACUCGCCCGA [VP30.22] | 0.02 |  | 
6 | NX-213 |  |  | Kd [2]: 0.14 nM
